4 molecules from patent US20200033363A1 (GARVAN INSTITUTE OF MEDICAL RESEARCH, published 2020) can be followed below.

Assay [1] addresses T1, hen egg-white lysozyme (HEL) (hen, UniProt P00698 19-147).
T1 construct: Bought protein; It was biotinylated for phage selection; In BLI it was captured through biotinylated HyHEL-10 or HyHEL-5 Fab; also called hen egg white lysozyme antigen
Description: biolayer interferometry (BLItz); HEL captured by biotinylated HyHEL-10 Fab on streptavidin sensors; Ig5 at 2000, 1000, 500 nM.

Assay [2] has as its target T1, hen egg-white lysozyme (HEL). Description: biolayer interferometry (Example 5); printed as 'Affinity (nM)' in Table 4. On the technique in general: Biolayer interferometry detects binding as a change in optical thickness at a sensor tip.
Assay [3] has the same target. Description: printed as 'Affinity (nM)' in Table 4; method not given; differs from the 30 nM of Example 5.
Assay [4] shares this target. The assay is described as follows: biolayer interferometry (BLItz); HEL captured by biotinylated HyHEL-5 Fab on streptavidin sensors; Ig12 at 1000, 750, 375 nM.
For a further assay, the target named is T2, mouse VEGFA164 (mouse, UniProt Q00731-2 27-190).
T2 sequence (looked up): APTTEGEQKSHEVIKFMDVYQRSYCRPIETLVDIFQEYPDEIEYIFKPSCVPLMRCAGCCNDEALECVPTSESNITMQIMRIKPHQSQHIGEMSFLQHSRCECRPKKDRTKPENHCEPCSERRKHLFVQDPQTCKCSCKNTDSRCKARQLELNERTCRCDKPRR
The assay is described as follows: biolayer interferometry.

The next assay addresses T3, human VEGFB (human, UniProt P49765-2 22-188, limits assumed).
T3 sequence (looked up): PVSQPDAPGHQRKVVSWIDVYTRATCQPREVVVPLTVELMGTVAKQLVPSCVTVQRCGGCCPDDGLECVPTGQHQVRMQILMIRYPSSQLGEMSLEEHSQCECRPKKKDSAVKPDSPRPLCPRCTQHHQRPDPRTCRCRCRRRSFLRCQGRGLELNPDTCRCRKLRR
Description: biolayer interferometry.

Another assay deals with T4, human PlGF (human, UniProt P49763-2 19-149, limits assumed).
T4 sequence (looked up): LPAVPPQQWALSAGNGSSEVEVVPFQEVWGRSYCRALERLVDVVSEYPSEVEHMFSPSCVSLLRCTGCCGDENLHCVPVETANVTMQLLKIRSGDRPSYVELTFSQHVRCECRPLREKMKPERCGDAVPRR
The assay is described as follows: biolayer interferometry.

Assay [5] has as its target T5, human VEGFA 121 (human, UniProt P15692-9 27-147, biotinylated (BLI assays)).
T5 construct: also called biotinylated VEGF
T5 sequence (looked up): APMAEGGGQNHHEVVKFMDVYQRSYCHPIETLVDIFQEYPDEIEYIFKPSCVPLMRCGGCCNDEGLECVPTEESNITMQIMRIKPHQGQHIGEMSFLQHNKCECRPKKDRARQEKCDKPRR
Description: bio-layer interferometry on immobilised VEGF (biotinylated VEGFA 121 by paragraph 199).

The target in assay [6] is T5, human VEGFA 121. The assay is described as follows: biolayer interferometry, generally the same method as for Ig5 and Ig12; immobilized biotinylated VEGF.

One may read the koff as a measure of how fast the partners let go of each other. Higher therefore signals a short-lived complex. What is called kon is the rate constant with which the complex forms. Read a high kon as fast association. Usually Kd stands for the constant that tells how readily two partners part at equilibrium.

T1 sequence (P00698 19-147): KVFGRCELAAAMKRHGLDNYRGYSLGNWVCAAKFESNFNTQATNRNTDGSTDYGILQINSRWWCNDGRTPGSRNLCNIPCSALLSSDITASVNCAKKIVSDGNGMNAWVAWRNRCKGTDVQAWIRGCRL

B1: immunoglobulin homodimer Ig5 (other)
VL: DIQMTQSPSSLSASVGDRVTITCRASQDIAAALNWYQQKPGKAPKLLIYASSYLQSGVPSRFSGSGSGTDFTLTISSLQPEDFATYYCQQDGYYPATFGQGTKVEIKR
notes: also called VL5; Ig52
For B1, in assay [1], the koff is 0.0057 s⁻¹ and the kon stood at 43000 M⁻¹ s⁻¹. The same molecule showed an equilibrium dissociation constant (Kd) in assay [2] of 130 nM.

B2: immunoglobulin homodimer Ig12 (other)
VL: DIQMTQSPSSLSASVGDRVTITCRASQDIASDLNWYQQKPGKAPKLLIYSDSYLQSGVPSRFSGSGSGTDFTLTISSLQPEDFATYYCQQYYMIPSTFGQGTKVEIKR
notes: Homodimer of two identical human Vkappa1 light chain variable domains, expressed in E. coli and purified on Protein L. Structure with HEL is PDB 4N1C; also called VL12; Ig122
B2 gave an equilibrium dissociation constant (Kd) in [3] of 64 nM. In assay [4], this molecule registered a Kd of 30 nM, a koff of 0.0025 s⁻¹ and a kon of 84000 M⁻¹ s⁻¹.

B3: VLD9 fused to mouse IgG2c hinge-Fc region (VLD9-Fc, long native hinge) (Fc fusion)
chain: DIQMTQSPSSLSASVGDRVTITCRASRAIAAYLNWYQQKPGKAPKLLIYAYSDLQSGVPSRFSGSGSGTDFTLTISSLQPEDFATYYCQQVWANPYTFGQGTKVEIKRA
notes: domain: hinge and Fc region; Expressed in Expi293 cells; also called VLD9-Fc native hinge; VLD9-Fc fusion protein; not shown: Mouse IgG2c hinge and Fc region
For the molecule B3, the dissociation constant Kd with mouse VEGFA164 was under 10 nM; in the assay with human VEGFA 121 [5], about 3 nM. The binding result with human VEGFB and in the assay with human PlGF was “no binding” throughout.

B4: VLD9 homodimer (other)
VL: DIQMTQSPSSLSASVGDRVTITCRASRAIAAYLNWYQQKPGKAPKLLIYAYSDLQSGVPSRFSGSGSGTDFTLTISSLQPEDFATYYCQQVWANPYTFGQGTKVEIKRA
notes: Homodimer of two identical human light chain variable domains selected on VEGF; Expressed generally as Ig5 and Ig12 were; also called VLD9 dimer; immunoglobulin VLD9
For the molecule B4, in the assay with human VEGFA 121 [6], the dissociation constant (Kd) is under 10 nM.
